Legend:
MS2 coat protein [1] = assay: apparent KD of MS2 coat protein, switch OFF state (with FMN for OFF switches, without FMN for ON switches); designed switch direction (-1 OFF switch, 1 ON switch): 1; higher = weaker reporter binding; conditions: FMN input: 0 or 200 uM; Eterna round: R93 (includes R88 designs)
How it was run: (§1)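 Designed RNA switches were transcribed on-chip from Illumina sequencing clusters and titrated with SNAP-549-labelled MS2 coat protein in twofold steps from 0.7 or 1.5 nM up to 3 µM. Each step lasted 0.8–1.5 h at first and 10–20 min by the end, in 100 mM Tris-HCl pH 7.5, 80 mM KCl and 4 mM MgCl2, without or with constant ligand. Apparent KD is the median, for each design, of fits to normalised cluster binding curves.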

MS2 coat protein [2] = assay: apparent KD of MS2 coat protein, switch ON state; designed switch direction (-1 OFF switch, 1 ON switch): 1; higher = weaker reporter binding; conditions: FMN input: 0 or 200 uM; Eterna round: R93 (includes R88 designs)
How it was run: as §1

Sequence | apparent KD of MS2 coat protein (MS2 coat protein [1]) [nM] | apparent KD of MS2 coat protein (MS2 coat protein [2]) [nM]
GAAAAACAUGAGGAUCACCCAUGUAGAAAUAUGGGAGGAUAUACGAAGACGAAAGUCGAGGUAGAAGGCCUAAAAG [Garnet 54] | 98 | 34.7
AAAAAACAUGAGGAUCACCCAUGUAAAAAAAACACAGGAUAUCCCUUUUUUAAAAAAAAAGGAGAAGGGUGAAAAA [Nob's Hobby 7 - Jieux - Same State 1] | 31.5 | 31.1
AGGAAACAUGAGGAUCACCCAUGUAAAAAUAUGGGAGGAUAUACGAAGACGAAAGAAAAAGUAGAAGGCCUAAAAG [Garnet 14] | 155 | 63.6
AGAAAACAUGAGGAUCACCCAUGUAGAAACAUGGGAGGAUAUACAAAGACGAAAGUCAAAGUAGAAGGCCUAAAGA [Mat - Same State 1 - Mod - D161] | 152 | 207
UAUCAUUACACGAAGGAUAUCGAUAAUUGAACAUGAGGAUCACCCAUGUGCCAUUCUUUACAGUUCGAGAAGGUCGAGGGUGAAG [JR_SS002_Sub708] | 83.5 | 72.7
GAAAAACAUGAGGAUCACCCAUGUGAUAACAUGGGAGGAUAUACGAGGACGAUAGUCAAGGUAGAAGGCCUAAAAG [Garnet 60] | 24.6 | 132
GAAAAACAUGAGGAUCACCCAUGUAGAGAUAUGGGAGGAUAUACGAAGACGAAAGACGAAGUAGAAGGCCUAAAAG [Garnet 58] | 180 | 35.1
AAUAACAAAAGAAAGGAUAUGCGCACAGGAACAUGAGGAUCACCCAUGUGCCGCCAAGGCGGAUAGCAGAAGGUUCACACGCAUA [Default title] | 20.1 | 19.4
UGAAGACAUGAGGAUCACCCAUGUGGGAUUAUGGGAGGAUAUACAAAGACGAGAGUCAGAGUAGAAGGCCUAGGAC [salish99-ss1-119(!)] | 72.9 | 32.2
AAAUAACAUGAGGAUCACCCAUGUUGCAACGAUACAGGAUAUGUGGGUGAAAAUAGCAUGACAGAAGGGUAAUGUA [SameState1 Malc#31] | 35 | 401
AAAAAACAUGAGGAUCACCCAUGUAGAAAUAUGGAAGGAUAUGGAAACACGAAAGUGAAACCAGAAGGUCCAAAAG [77%, Mat - Mod of Eli, 9] | 23.9 | 18
AGGAAACAUGAGGAUCACCCAUGUAAAAAUAUGGGAGGAUAUACGAAGACGAAAGUAAGAGUAGAAGGCCUAAAAG [Garnet 9] | 90.6 | 23.9
AGGAAACAUGAGGAUCACCCAUGUAAAGAUGGAGGAGGAUAUCGAAAGAAAAGAAAGAAACGAGAAGGCCUAAAAG [59%, Flamingo, 2] | 99.2 | 20.9
AUUACAUCUAGUUAGGAUAUCAGAUGUAAGACAUGAGGAUCACCCAUGUCCUAAGAAUAGGUAACUGAGAAGGAACAGGGAGUAU [JR_SS002_Sub418] | 26.8 | 23.4
AAGAGACAUGAGGAUCACCCAUGUAGGAUUAUGGGAGGAUAUACAAAGACGAGAGUCAGAGUAGAAGGCCUAGGAG [salish99-ss1-131(!)] | 57.4 | 23.2
AAAAAAAAGCCCAAGGAUAUCCGGAUGAAGACAUGAGGAUCACCCAUGUGAAAAAAAAAAUAUGAGGAGAAGGUGGGAAAAAAAAA [Esgemaedso] | 76.6 | 63.4
UAAAAACAUGAGGAUCACCCAUGUAGAAAUAUGGGAGGAUAUACAAAGACGAAAGUCAAAGUAGAAGGCCUGAAAU [Mat - Same State 1 - Eli mod - 85] | 88.7 | 21.5
AGAAAACAUGAGGAUCACCCAUGUGAUAAUAUGGGAGGAUAUACGGAGACGAAAGUCGACGUAGAAGGCCUAAAGA [Garnet 49] | 82.8 | 42.9
AAAAAACAUGAGGAUCACCCAUGUAAAAAAAACACAGGAUAUCCCUUUUUUAAAUGGGAAGGAGAAGGGUGAAAAA [Nob's Hobby 11 - Jieux - Same State 1] | 36.2 | 43.1
UGGAGACAUGAGGAUCACCCAUGUGAGAAGAGGCGAGGAUAUCGAAAGAAAGAAGAGAAACGAGAAGGCGCGAGUA [salish99-SS1-038] | 39.3 | 32.1
CAUCAUGCGCCUAAGGAUAUGUCUCACAAGACAUGAGGAUCACCCAUGUAGCCAAAAUAAACGAUGCAGAAGGUGGAGCACAUGC [Atrexe] | 602 | 271
GAAAAACAUGAGGAUCACCCAUGUGUAAAUAUGGGAGGAUAUACGAAGACGUAAGUCAAAGUAGAAGGCCUAAAAG [Garnet 92] | 119 | 24.7
